Data as given in the supplement of paper PMC9170038.

Test system: MS2 coat protein
Test: apparent KD of MS2 coat protein; designed switch direction (-1 OFF switch, 1 ON switch): 1; higher = weaker reporter binding
Procedure, shortened: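 Transcription of designed RNA switches on Illumina chips was done by stalled E. coli RNA polymerase. SNAP-549-labelled MS2 coat protein was then titrated in doubling steps from 0.7 or 1.5 nM to 3 µM, with steps of 0.8–1.5 h at the lowest and 10–20 min at the highest concentration. The per-design median over clusters of curve-fitted normalised fluorescence is reported as apparent KD.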

[1] = input ligand: microRNA oligo, concentration not stated
[2] = Eterna round: R95, input ligand: FMN 200 uM
[3] = Eterna round: R95, input ligand: microRNA oligo, concentration not stated
[4] = Eterna round: R95, input ligand: none

| Sequence | apparent KD of MS2 coat protein (input ligand: FMN 200 uM) [nM] | apparent KD of MS2 coat protein [1] [nM] | apparent KD of MS2 coat protein (input ligand: none) [nM] | apparent KD of MS2 coat protein [2] [nM] | apparent KD of MS2 coat protein [3] [nM] | apparent KD of MS2 coat protein [4] [nM] |
| --- | --- | --- | --- | --- | --- | --- |
| UUAAUGAUGAUAGGAUAUACAUGAGGAAUUCUCGUAGAAGGAUCAUGACAUGAGGAUCACCCAUGUAUCGCUCAGAAGAGCGUA [Mat - Same State NG 1 - JL mod - D32] (Eterna round: R96, puzzle: Same State NG 1) | 1340 | 368 | 528 | – | – | – |
| ACAUGAGAAAGAGGAUAUGUUGUACCUACAUGUGACAUGAGGAUCACCCAUGUGGUAAGUAUGAUACAGAAGGCUUAGAUAUGU [Equivalance 61 - Jieux - Same State NG 2] (Eterna round: R96, puzzle: Same State NG 2) | 15.1 | 17.8 | 25.6 | – | – | – |
| GCUCGCGGCACAGGAUAUGGGUGCCUGUACAUGAGGAUCACCCAUGUUAAGGGACGGAUUACGAACCAGAAGGGUGAGGCGGGC [Axearisar] (Eterna round: R96, puzzle: Same State NG 2) | 63.8 | 120 | 768 | – | – | – |
| GGUGCGAAAUAAGCCUACAUGAGGAUCACCCAUGUAUGUAGGCAGGAUAUCGUAUGCAAAGCAUACGAGAAGGGCUGACGCACC [Mat - Same State NG 3 - JL Mod - D51] (Eterna round: R96, puzzle: Same State NG 3) | 32.5 | 55.9 | 75.4 | – | – | – |
| UAUGCACAUGAGGAUCACCCAUGUGAUAGAAUCACAGGAUAUCACCUCGGACGUGCGAUGUGAGAAGGGUGGUCGU [Same State 1 - Mod of Vinnie Anrelari v.4] (puzzle: Same State 1) | – | – | – | 150 | 63.1 | 124 |
| GGGAGAGACGGAGGAUAUGGUGGGAGAUAGGGACUAGAAGGUUGGACAUGAGAAUCGAACAUGAGGAUCACCCAUGUUGGGAGG [iteri-3] (Eterna round: R96, puzzle: Same State NG 1) | 51 | 28.3 | 63.2 | – | – | – |
| AGGCAAGCUUUUUGCUUGUAUGCAGGAGAACAUGAGGAUCACCCAUGUCUUGGAGGUGUUGAAAAUAAGAGAAUGCA [JR_SHM208A_Sub006] (puzzle: Sensor for hsa-mir-208a) | – | – | – | 63.9 | 72.8 | 93.9 |
| ACAUGAGACCUAGGAUAUGUUGUACCUACAUGUGACAUGAGGAUCACCCAUGUGGUAAGUAUGAGACAGAAGGAGGAGAUAUGU [Equivalence 28 - Jieux - Same State NG 2] (Eterna round: R96, puzzle: Same State NG 2) | 12.8 | 21.2 | 32 | – | – | – |
| AUAAGGCAAGCUUUUUUCUCGUAGUGUAAACAUGAGGAUCACCCAUGUGCCCACCCUAGAUCUUUGGAUCGCAGAAC [Atrageus] (puzzle: Sensor for hsa-mir-208a) | – | – | – | 22.8 | 16.8 | 26.8 |
| UUAAAACAUGAGGAUCACCCAUGUAAUAAUAUGGGAGGAUAUCAGAUUUAAUUUAAUUUAUGAGAAGGCCUAAAUG [Mat - Same State 1 - Mod of Eli - D60] (puzzle: Same State 1) | – | – | – | 65.4 | 407 | 1150 |
| GUAGCAUACCGAGGAUAUUCAUUACAUGAGGAUCACCCAUGUUUUAUAGGCCGAUUACGGCCUUGGGAGAAGGCGGAAUGCUAC [Xeonanis - 20 Mod27] (Eterna round: R96, puzzle: Same State NG 2) | – | 9.7 | – | – | – | – |
| AUAUAACAUGAGGAUCACCCAUGUCAACAAAGUCGAGGAUAUGGGCAAAUAAAAUAAGAACCAGAAGGCGAAUAAU [salish99_ss1_r3_047] (Eterna round: R96, puzzle: Same State 1) | – | 189 | – | – | – | – |
| AAUUAAGAUUAAGGAUAUCACGUCGAAUAGACGUGAGAAGGUGAUCAUAACAUGAGGAUCACCCAUGUAUUACAUGAAUUAAUU [SSNG1/3-B1] (Eterna round: R96, puzzle: Same State NG 1) | 873 | 218 | 498 | – | – | – |
| AGAUAACAUGAGGAUCACCCAUGUCAACUAAGUCGAGGAUAUGGGCAUAUUAUAUUAGAACCAGAAGGCGAAUAGA [Mat - Same State 1 - Mod of UCT - D45] (puzzle: Same State 1) | – | – | – | 12.6 | 4.03 | 27.9 |
| GGUAGGUUACUACCAAUCUACAUGAGGAUCACCCAUGUGUAGGAGGAUAUGGUACCUAUUUGGUACCAGAAGGCCUUAUUAAUU [Fiskers NG3ss - 10] (Eterna round: R96, puzzle: Same State NG 3) | 143 | 81.8 | 98.8 | – | – | – |
| AAGUAGUGGUCAGGAUAUCAAAUCAUUGCAUCACGAUACAUGAGGAUCACCCAUGUCCCAAAAUAUGAGAAGGGACUCACACGG [Eternabot solution 45] (Eterna round: R96, puzzle: Same State NG 2) | 279 | 90.1 | 186 | – | – | – |

| Sequence | apparent KD of MS2 coat protein (input ligand: FMN 200 uM) [nM] | apparent KD of MS2 coat protein [1] [nM] | apparent KD of MS2 coat protein (input ligand: none) [nM] | apparent KD of MS2 coat protein [2] [nM] | apparent KD of MS2 coat protein [3] [nM] | apparent KD of MS2 coat protein [4] [nM] |
| --- | --- | --- | --- | --- | --- | --- |
| UAGAGAGGAAGCGAGGAUAUCGUGUGAGGUACAUGAGGAUCACCCAUGUUUGAUGUUGAGAGAGGCGAGAAGGCGCAGGAGAAAA [JR_SS2_Sub086] (puzzle: Same State 2) | – | – | – | 30.8 | 24.9 | 38.7 |
| UUAAUGAUGAAAGGAUAUACAUGAGGAAUUCUCGUAGAAGGUUCAUGACAUGAGGAUCACCCAUGUAUCGCUCGAAAGAGCGUA [Mat - Same State NG 1 - JL mod - D30] (Eterna round: R96, puzzle: Same State NG 1) | 149 | 11.6 | 47.1 | – | – | – |
| UUCACCUUUUAUAACAUGAGGAUCACCCAUGUAUAUUGUACGUAGGAUAUCGAUGUUAGUUUUUUCGAGAAGGACGAUGUAAGU [JR_SSND3_Sub049] (Eterna round: R96, puzzle: Same State NG 3) | 29.6 | 40.7 | 53.9 | – | – | – |
| UUAAUGAAGUAAGGAUAUACAUGAGGAUCACUCGUAGAAGGUACUAUACAUGAGGAUCACCCAUGUGCCGGUCCGUAGACUGGA [JL SSNG1 1.03] (Eterna round: R96, puzzle: Same State NG 1) | 554 | 184 | 1090 | – | – | – |
| UAGAAACAUGAGGAUCACCCAUGUGUCAAAGACAUAGGAUAUCACGACUGGAGUCAAUCGUGAGAAGGGUGGUAAA [Usra] (puzzle: Same State 1) | – | – | – | 92.3 | 19.4 | 38.7 |
| GUAGCAUACCGAGGAUAUUCAUAACCGAAAGGAACAUGAGGAUCACCCAUGUGGCGAAAGCCUUGGGAGAAGGCGGAAUGCUAC [Xeonanis - 20 Mod74] (Eterna round: R96, puzzle: Same State NG 2) | 42.8 | 291 | 957 | – | – | – |
| UACAUACGCGGAGGAUAUGGGCGAGGCGCGGAGGUCCGCGCCAAAACAUGAGGAUCACCCAUGUCCCAGAAGGCCGCACAAACU [Atusso] (Eterna round: R96, puzzle: Same State NG 2) | 15.1 | 66.4 | 86.6 | – | – | – |
| GGAAUAUUUACAGGAUAUGAUUUGUAAAUUCGAUCAGAAGGGUAGAUGUCUUACACGGUUUGUUACAUGAGGAUCACCCAUGUU [SameState NG1 #11] (Eterna round: R96, puzzle: Same State NG 1) | – | 109 | – | – | – | – |
| UGGCUCAGACUAGGAUAUAUGUGGUCACAUGAGGAUCACCCAUGUCUCGAGCUUCGGCUCGAGGCAUAGAAGGAGUCUGAGCCA [SSNG2/5-D2] (Eterna round: R96, puzzle: Same State NG 2) | 1540 | 329 | 26.5 | – | – | – |
| AGUCCAGCCAGAGCUGGACAAAAGCAUGUACAUGAGGAUCACCCAUGUUCAUGUACAAGCUUUUUGCUCGUCUUAAG [Mat - hsa-mir-208a - Mod of JL - 64] (puzzle: Sensor for hsa-mir-208a) | – | – | – | 583 | 15.9 | 547 |
| AUUUAACAAGCUUUUUGCUCGUCUUAUAAACAUGAGGAUCACCCAUGUAAUAGCGUGAGAGUAAUUAAUUUAAUUAU [JMF 100] (puzzle: Sensor for hsa-mir-208a) | – | – | – | 15.5 | 32.7 | 14.1 |
| UUAAUUAAUUAAUUAUACAUGAGGAUCACCCAUGUAAGUGAUCAGGAUAUCAGCUCGAUUAGAGCUGAGAAGGGAUCCAUGUAA [SSNG3/14-A2] (Eterna round: R96, puzzle: Same State NG 3) | – | 78 | – | – | – | – |
| AGUCCAGCCUGAGCUGGACAAAAGUAUGUACAUGAGGAUCACCCAUGUCAUGUACAAGCUUUUUGCUCGUCUUAAUA [Zipper 49 - 9] (puzzle: Sensor for hsa-mir-208a) | – | – | – | 404 | 24.1 | 511 |
| GCGCUCCAAGGAGCUGCGACAUGAGGAUCACCCAUGUAAUCACAGGAUAUGCGAUUCCGAAUUUUGCAGAAGGGUGAUAAGAAC [Asorila] (Eterna round: R96, puzzle: Same State NG 3) | 482 | 491 | 241 | – | – | – |
| AGGAAGGAGACUGAGGAUAUCGUUGAGAGGACAUGAGGAUCACCCAUGUGUAUAGGAUUGGAGAACGAGAAGGCAGAGGAGUGGA [JR_SS2_Sub046] (puzzle: Same State 2) | – | – | – | 50 | 48.5 | 72.4 |
